Measured values reported in article PMC3778244 (Genes & Development, 2013).
Residue numbers refer to the chain shown, from its start. Numbers in names are those of the source.

What was measured:
[1] = target: T1, Ccq1 N-terminal domain (Ccq1-NTD; residues 2-439) (S. pombe, UniProt Q10432 2-439); test: pull-down
T1 sequence: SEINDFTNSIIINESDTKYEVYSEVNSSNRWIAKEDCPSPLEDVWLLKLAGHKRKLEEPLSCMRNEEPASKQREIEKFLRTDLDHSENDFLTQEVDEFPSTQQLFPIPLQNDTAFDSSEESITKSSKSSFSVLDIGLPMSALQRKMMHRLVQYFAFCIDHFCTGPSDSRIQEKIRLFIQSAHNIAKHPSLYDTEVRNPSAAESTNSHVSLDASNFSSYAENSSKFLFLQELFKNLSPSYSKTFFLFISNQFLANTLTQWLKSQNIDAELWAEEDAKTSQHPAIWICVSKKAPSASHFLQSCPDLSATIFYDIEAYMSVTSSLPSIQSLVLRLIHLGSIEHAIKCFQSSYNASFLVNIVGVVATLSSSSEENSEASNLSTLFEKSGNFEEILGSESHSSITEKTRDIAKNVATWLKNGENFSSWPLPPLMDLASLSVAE

Poz1 (recombinant) = target: T2, Poz1 (recombinant) (S. pombe, UniProt O13852 1-249); test: pull-down
T2 sequence: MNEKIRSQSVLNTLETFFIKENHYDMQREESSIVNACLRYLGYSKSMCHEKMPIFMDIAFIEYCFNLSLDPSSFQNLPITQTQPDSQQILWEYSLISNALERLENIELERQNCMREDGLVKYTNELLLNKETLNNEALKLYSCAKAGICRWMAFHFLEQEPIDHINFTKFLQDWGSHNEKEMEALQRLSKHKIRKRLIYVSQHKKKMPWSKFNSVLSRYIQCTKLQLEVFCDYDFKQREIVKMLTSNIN

B1: GST-Tpz1-CTD (Tpz1 C-terminal domain, residues 406-508) (domain or fragment)
chain: SSVISCTPPAINFTSDICNEQIELEYKRKPIPDYDFMKGLETTLQELYVEHQSKKRRLELFQLTNNHQKNSEACEMCRLGLPHGSFFELLRDWKKIEEFRNKS
[1]
  binding result: binds
Poz1 (recombinant)
  binding result: binds

B2: GST-Tpz1-CTD L449A (domain or fragment)
chain: B1 chain with L44A
Poz1 (recombinant)
  binding result: binds

B3: GST-Tpz1-CTD I501R (domain or fragment)
chain: B1 chain with I96R
[1]
  binding result: binds
